Measurements: article PMC12557367, ““Precision on Two Wheels”–Structural Refinement of ^64Cu- and ^68Ga-Labeled Bicyclic Peptides Targeting Nectin‑4 for Improved Tumor Imaging: From Preclinical Development to First-in-Human Application” (Journal of Medicinal Chemistry, 2025)
Numbered stars: 1 amine (or outer) side, 2 acyl side, 3 side chain; on linkers, the order of the positions; unused ones are H or OH. Bridge positions count the residues as written; N and C are the ends. Square brackets hold non-standard residues; d marks the D form. * marks the point of attachment. (R)‑NODAGA = O=C(O)CN1CCN(CC(=O)O)CCN([C@H](CCC(=O)*)C(=O)O)CC1; DOTA = O=C(O)CN1CCN(CC(=O)O)CCN(CC(=O)*)CCN(CC(=O)O)CC1; TATA = O=C(CC[*:1])N1CN(C(=O)CC[*:2])CN(C(=O)CC[*:3])C1; Ser(et) = O-ethylserine, CCOC[C@H](N[*:1])C(=O)[*:2]; 1Nal = N[C@@H](Cc1cccc2ccccc12)C(=O)O; 2Nal = N[C@@H](Cc1ccc2ccccc2c1)C(=O)O; Hyp = O=C(O)[C@@H]1C[C@@H](O)CN1; hArg = N=C(N)NCCCC[C@H](N)C(=O)O; Met(O) = CS(=O)CC[C@H](N)C(=O)O; SeMet = C[Se]CC[C@H](N)C(=O)O; Nle = CCCC[C@H](N)C(=O)O

T1: recombinant human nectin-4 (human, UniProt Q96NY8 32-349)
T1 construct: nectin-4, human, recombinant; also called complete extracellular domain of nectin-4; source: bought: R&D Systems (Catalog number 2659-N4)
T1 sequence (looked up): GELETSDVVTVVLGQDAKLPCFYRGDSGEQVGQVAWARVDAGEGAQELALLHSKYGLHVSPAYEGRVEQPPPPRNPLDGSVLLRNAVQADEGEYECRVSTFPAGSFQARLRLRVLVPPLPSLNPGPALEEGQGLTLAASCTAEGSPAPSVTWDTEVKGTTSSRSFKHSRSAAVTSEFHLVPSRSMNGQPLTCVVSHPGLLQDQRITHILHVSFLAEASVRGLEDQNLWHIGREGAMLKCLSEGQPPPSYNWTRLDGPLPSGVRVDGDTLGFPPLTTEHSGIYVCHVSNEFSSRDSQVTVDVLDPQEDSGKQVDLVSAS

B1: 6 (peptide)
chain: {(R)‑NODAGA}-CP[1Nal][dD]C[Ser(et)][hArg]DWSTP[Hyp]WC-NH2
modifications: linker 1-5-15 via TATA
SMILES: CCOC[C@@H]1NC(=O)[C@@H]2CSCCC(=O)N3CN(CN(C3)C(=O)CCSC[C@H](NC(=O)CC[C@H](C(=O)O)N3CCN(CC(=O)O)CCN(CC(=O)O)CC3)C(=O)N3CCC[C@H]3C(=O)N[C@@H](Cc3cccc4ccccc34)C(=O)N[C@H](CC(=O)O)C(=O)N2)C(=O)CCSC[C@@H](C(N)=O)NC(=O)[C@H](Cc2c[nH]c3ccccc23)NC(=O)[C@@H]2C[C@@H](O)CN2C(=O)[C@@H]2CCCN2C(=O)[C@H]([C@@H](C)O)NC(=O)[C@H](CO)NC(=O)[C@H](Cc2c[nH]c3ccccc23)NC(=O)[C@H](CC(=O)O)NC(=O)[C@H](CCCCNC(=N)N)NC1=O

Molecular target: T1, recombinant human nectin-4
Assay: fluorescence polarisation; fluorescence anisotropy, competition: 1 nM probe 1a, 20 nM nectin-4, 10 concentrations of nonlabeled peptide, 37 °C, HEPES buffer pH 7.4, 1% DMSO; IC50 transformed into Kd (Nikolovska-Coleska equation, Kd of 1a 0.94 nM)
Conditions: both partners purified

Binder	Kd
{(R)‑NODAGA}-CP[1Nal][dD]C[Nle][hArg]DWSTP[Hyp]WC-NH2 (linker 1-5-15 via TATA) [3a]	1.04 nM
{(R)‑NODAGA}-CP[1Nal][dD]C[Nle][hArg]DWSTP[Hyp]WC-NH2 (linker 1-5-15 via TATA; also: NODAGA complexed with natCu) [natCu-3a]	1.22 nM
Ac-CP[1Nal][dD]C[Nle][hArg]DWSTP[Hyp]WC-NH2 (linker 1-5-15 via TATA) [3b]	0.58 nM
{(R)‑NODAGA}-CP[1Nal][dD]C[SeMet][hArg]DWSTP[Hyp]WC-NH2 (linker 1-5-15 via TATA) [5]	1.37 nM
B1	16.4 nM
{(R)‑NODAGA}-CP[2Nal][dD]CMRDWSTP[Hyp]WC-NH2 (linker 1-5-15 via TATA) [8a]	21 nM
{DOTA}-CP[2Nal][dD]CMRDWSTP[Hyp]WC-NH2 (linker 1-5-15 via TATA) [8c]	149 nM
{DOTA}-CP[2Nal][dD]CMRDWSTP[Hyp]WC-OH (linker 1-5-15 via TATA) [8d (N188)]	191 nM
{(R)‑NODAGA}-CP[2Nal][dD]CM[hArg]DWSTP[Hyp]WC-NH2 (linker 1-5-15 via TATA) [9]	11.5 nM
H-CP[1Nal][dD]CM[hArg]DWSTP[Hyp]WC-NH2 (linker 1-5-15 via TATA) [1c]	1.51 nM
Ac-CP[1Nal][dD]CM[hArg]DWSTP[Hyp]WC-NH2 (linker 1-5-15 via TATA) [1d (BCY8126)]	0.73 nM
{(R)‑NODAGA}-CP[1Nal][dD]CM[hArg]DWSTP[Hyp]WC-NH2 (linker 1-5-15 via TATA; also: NODAGA complexed with natCu) [natCu-1e]	0.23 nM
{(R)‑NODAGA}-CP[1Nal][dD]C[Met(O)][hArg]DWSTP[Hyp]WC-NH2 (linker 1-5-15 via TATA; also: Met(O): mixture of diastereomers) [2]	25 nM

Molecular target: T1, recombinant human nectin-4
Assay: SPR; Biacore T200, human nectin-4 immobilised on CM5 chip by amine coupling, peptides as analytes, single-cycle kinetics, 25 °C, HBS-P+ pH 7.4, no DMSO, 1:1 binding model
Conditions: both partners purified

Binder	Kd	koff	kon
{(R)‑NODAGA}-CP[1Nal][dD]C[Nle][hArg]DWSTP[Hyp]WC-NH2 (linker 1-5-15 via TATA) [3a]	1.31 nM		
B1	6.29 nM	0.0247 s⁻¹	3.86e+06 M⁻¹ s⁻¹
{(R)‑NODAGA}-CP[2Nal][dD]CMRDWSTP[Hyp]WC-NH2 (linker 1-5-15 via TATA) [8a]	63 nM	0.0433 s⁻¹	680000 M⁻¹ s⁻¹
{DOTA}-CP[2Nal][dD]CMRDWSTP[Hyp]WC-NH2 (linker 1-5-15 via TATA) [8c]	127 nM	0.00239 s⁻¹	20000 M⁻¹ s⁻¹
{DOTA}-CP[2Nal][dD]CMRDWSTP[Hyp]WC-OH (linker 1-5-15 via TATA) [8d (N188)]	236 nM	0.00881 s⁻¹	40000 M⁻¹ s⁻¹
{(R)‑NODAGA}-CP[2Nal][dD]CM[hArg]DWSTP[Hyp]WC-NH2 (linker 1-5-15 via TATA) [9]	4.58 nM	0.0765 s⁻¹	1.69e+07 M⁻¹ s⁻¹
